The source of these data is patent US20200054723A1 (ALLAKOS, published 2020).

B1: RHE E-DKFmut (antibody, human IgG1, V domains shown)
VH: EVQLVESGGGLVQPGGSLRLSCAASGFSLTIYGAHWVRQAPGKGLEWVGVIWAGGSTNYNSALMSRFTISKDNSKNTVYLQMNSLRAEDTAVYYCARDGSSPYYYSMDYWGQGTTVTVSS
VL: EIVLTQSPATLSLSPGERATLSCSATSSVSYMHWFQQKPGQAPRLLIYSTSNLASGIPARFSGSGSGTDYTLTISSLEPEDFAVYYCQQRSSYPYTFGPGTKLDIK
notes: human IgG1/kappa
B2: RHE Y-VKG (antibody, human IgG1, V domains shown)
VH: EVQLVESGGGLVQPGGSLRLSCAASGFSLTIYGAHWVRQAPGKGLEWVGVIWAGGSTNYNSALMSRFTISKDNSKNTVYLQMNSLRAEDTAVYYCARDGSSPYYYSMEVWGQGTTVTVSS
VL: EIVLTQSPATLSLSPGERATLSCSATSSVSYMHWYQQKPGQAPRLLIYSTSNLASGIPARFSGSGSGTDFTLTISSLEPEDFAVYYCQQRSSYPFTFGPGTKLDIK
notes: human IgG1/kappa
B3: RHE Triple-KA (antibody, human IgG1, V domains shown)
VH: EVQLVESGGGLVQPGGSLRLSCAASGFSLTIYGAHWVRQAPGKGLEWVGVIWAGGSTNYNSALMSRFTISKDNSKNTVYLQMNSLRAEDTAVYYCARDGSSPYYYGMDVWGQGTTVTVSS
VL: EIVLTQSPATLSLSPGERATLSCSATSSVSYMHWFQQKPGQAPRLLIYSTSNLASGIPARFSGSGSGTDFTLTISSLEPEDFAVYYCQQRSSYPFTFGPGTKLDIK
notes: human IgG1/kappa
B4: RHE Y-VKFmut (antibody, human IgG1, V domains shown)
VH: EVQLVESGGGLVQPGGSLRLSCAASGFSLTIYGAHWVRQAPGKGLEWVGVIWAGGSTNYNSALMSRFTISKDNSKNTVYLQMNSLRAEDTAVYYCARDGSSPYYYSMEVWGQGTTVTVSS
VL: EIVLTQSPATLSLSPGERATLSCSATSSVSYMHWFQQKPGQAPRLLIYSTSNLASGIPARFSGSGSGTDYTLTISSLEPEDFAVYYCQQRSSYPYTFGPGTKLDIK
notes: human IgG1/kappa
B5: RHE Y-VKE (antibody, human IgG1, V domains shown)
VH: EVQLVESGGGLVQPGGSLRLSCAASGFSLTIYGAHWVRQAPGKGLEWVGVIWAGGSTNYNSALMSRFTISKDNSKNTVYLQMNSLRAEDTAVYYCARDGSSPYYYSMEVWGQGTTVTVSS
VL: EIVLTQSPATLSLSPGERATLSCSATSSVSYMHWFQQKPGQAPRLLIYSTSNLASGVPARFSGSGSGTDFTLTISSLEPEDFAVYYCQQRSSYPFTFGPGTKLDIK
notes: human IgG1/kappa
B6: RHE S-GKG (antibody, human IgG1, V domains shown)
VH: EVQLVESGGGLVQPGGSLRLSCAASGFSLTIYGAHWVRQAPGKGLEWVGVIWAGGSTNYNSALMSRFTISKDNSKNTVYLQMNSLRAEDTAVYYCARDGSSPYYYGMEYWGQGTTVTVSS
VL: EIVLTQSPATLSLSPGERATLSCSATSSVSYMHWYQQKPGQAPRLLIYSTSNLASGIPARFSGSGSGTDFTLTISSLEPEDFAVYYCQQRSSYPFTFGPGTKLDIK
notes: human IgG1/kappa
B7: RHE S-GKD (antibody, human IgG1, V domains shown)
VH: EVQLVESGGGLVQPGGSLRLSCAASGFSLTIYGAHWVRQAPGKGLEWVGVIWAGGSTNYNSALMSRFTISKDNSKNTVYLQMNSLRAEDTAVYYCARDGSSPYYYGMEYWGQGTTVTVSS
VL: EIVLTQSPATLSLSPGERATLSCSATSSVSYMHWFQQKPGQAPRLWIYSTSNLASGIPARFSGSGSGTDFTLTISSLEPEDFAVYYCQQRSSYPFTFGPGTKLDIK
notes: human IgG1/kappa
B8: RHE Y-VKB (antibody, human IgG1, V domains shown)
VH: EVQLVESGGGLVQPGGSLRLSCAASGFSLTIYGAHWVRQAPGKGLEWVGVIWAGGSTNYNSALMSRFTISKDNSKNTVYLQMNSLRAEDTAVYYCARDGSSPYYYSMEVWGQGTTVTVSS
VL: EIILTQSPATLSLSPGERATLSCSATSSVSYMHWFQQKPGQAPRLWIYSTSNLASGVPARFSGSGSGTDYTLTISSLEPEDFAVYYCQQRSSYPFTFGPGTKLDIK
notes: human IgG1/kappa
B9: RHE S-G KFmut (antibody, V domains shown)
VH: EVQLVESGGGLVQPGGSLRLSCAASGFSLTIYGAHWVRQAPGKGLEWVGVIWAGGSTNYNSALMSRFTISKDNSKNTVYLQMNSLRAEDTAVYYCARDGSSPYYYGMEYWGQGTTVTVSS
VL: EIVLTQSPATLSLSPGERATLSCSATSSVSYMHWFQQKPGQAPRLLIYSTSNLASGIPARFSGSGSGTDYTLTISSLEPEDFAVYYCQQRSSYPYTFGPGTKLDIK
notes: human IgG1/kappa
B10: RHE S-GKB (antibody, human IgG1, V domains shown)
VH: EVQLVESGGGLVQPGGSLRLSCAASGFSLTIYGAHWVRQAPGKGLEWVGVIWAGGSTNYNSALMSRFTISKDNSKNTVYLQMNSLRAEDTAVYYCARDGSSPYYYGMEYWGQGTTVTVSS
VL: EIILTQSPATLSLSPGERATLSCSATSSVSYMHWFQQKPGQAPRLWIYSTSNLASGVPARFSGSGSGTDYTLTISSLEPEDFAVYYCQQRSSYPFTFGPGTKLDIK
notes: human IgG1/kappa
B11: RHE Y-VKD (antibody, human IgG1, V domains shown)
VH: EVQLVESGGGLVQPGGSLRLSCAASGFSLTIYGAHWVRQAPGKGLEWVGVIWAGGSTNYNSALMSRFTISKDNSKNTVYLQMNSLRAEDTAVYYCARDGSSPYYYSMEVWGQGTTVTVSS
VL: EIVLTQSPATLSLSPGERATLSCSATSSVSYMHWFQQKPGQAPRLWIYSTSNLASGIPARFSGSGSGTDFTLTISSLEPEDFAVYYCQQRSSYPFTFGPGTKLDIK
notes: human IgG1/kappa
B12: RHE Y-VKC (antibody, human IgG1, V domains shown)
VH: EVQLVESGGGLVQPGGSLRLSCAASGFSLTIYGAHWVRQAPGKGLEWVGVIWAGGSTNYNSALMSRFTISKDNSKNTVYLQMNSLRAEDTAVYYCARDGSSPYYYSMEVWGQGTTVTVSS
VL: EIILTQSPATLSLSPGERATLSCSATSSVSYMHWFQQKPGQAPRLLIYSTSNLASGIPARFSGSGSGTDFTLTISSLEPEDFAVYYCQQRSSYPFTFGPGTKLDIK
notes: human IgG1/kappa
B13: RHE Triple-KD (antibody, human IgG1, V domains shown)
VH: EVQLVESGGGLVQPGGSLRLSCAASGFSLTIYGAHWVRQAPGKGLEWVGVIWAGGSTNYNSALMSRFTISKDNSKNTVYLQMNSLRAEDTAVYYCARDGSSPYYYGMDVWGQGTTVTVSS
VL: EIVLTQSPATLSLSPGERATLSCSATSSVSYMHWFQQKPGQAPRLWIYSTSNLASGIPARFSGSGSGTDFTLTISSLEPEDFAVYYCQQRSSYPFTFGPGTKLDIK
notes: human IgG1/kappa
B14: RHE S-GKA (antibody, human IgG1, V domains shown)
VH: EVQLVESGGGLVQPGGSLRLSCAASGFSLTIYGAHWVRQAPGKGLEWVGVIWAGGSTNYNSALMSRFTISKDNSKNTVYLQMNSLRAEDTAVYYCARDGSSPYYYGMEYWGQGTTVTVSS
VL: EIVLTQSPATLSLSPGERATLSCSATSSVSYMHWFQQKPGQAPRLLIYSTSNLASGIPARFSGSGSGTDFTLTISSLEPEDFAVYYCQQRSSYPFTFGPGTKLDIK
notes: human IgG1/kappa
B15: RHE S-GKF (antibody, human IgG1, V domains shown)
VH: EVQLVESGGGLVQPGGSLRLSCAASGFSLTIYGAHWVRQAPGKGLEWVGVIWAGGSTNYNSALMSRFTISKDNSKNTVYLQMNSLRAEDTAVYYCARDGSSPYYYGMEYWGQGTTVTVSS
VL: EIVLTQSPATLSLSPGERATLSCSATSSVSYMHWFQQKPGQAPRLLIYSTSNLASGIPARFSGSGSGTDYTLTISSLEPEDFAVYYCQQRSSYPFTFGPGTKLDIK
notes: human IgG1/kappa
B16: RHE Y-VKF (antibody, human IgG1, V domains shown)
VH: EVQLVESGGGLVQPGGSLRLSCAASGFSLTIYGAHWVRQAPGKGLEWVGVIWAGGSTNYNSALMSRFTISKDNSKNTVYLQMNSLRAEDTAVYYCARDGSSPYYYSMEVWGQGTTVTVSS
VL: EIVLTQSPATLSLSPGERATLSCSATSSVSYMHWFQQKPGQAPRLLIYSTSNLASGIPARFSGSGSGTDYTLTISSLEPEDFAVYYCQQRSSYPFTFGPGTKLDIK
notes: human IgG1/kappa
B17: RHE Triple-KE (antibody, human IgG1, V domains shown)
VH: EVQLVESGGGLVQPGGSLRLSCAASGFSLTIYGAHWVRQAPGKGLEWVGVIWAGGSTNYNSALMSRFTISKDNSKNTVYLQMNSLRAEDTAVYYCARDGSSPYYYGMDVWGQGTTVTVSS
VL: EIVLTQSPATLSLSPGERATLSCSATSSVSYMHWFQQKPGQAPRLLIYSTSNLASGVPARFSGSGSGTDFTLTISSLEPEDFAVYYCQQRSSYPFTFGPGTKLDIK
notes: human IgG1/kappa
B18: RHE S-GKC (antibody, human IgG1, V domains shown)
VH: EVQLVESGGGLVQPGGSLRLSCAASGFSLTIYGAHWVRQAPGKGLEWVGVIWAGGSTNYNSALMSRFTISKDNSKNTVYLQMNSLRAEDTAVYYCARDGSSPYYYGMEYWGQGTTVTVSS
VL: EIILTQSPATLSLSPGERATLSCSATSSVSYMHWFQQKPGQAPRLLIYSTSNLASGIPARFSGSGSGTDFTLTISSLEPEDFAVYYCQQRSSYPFTFGPGTKLDIK
notes: human IgG1/kappa
B19: RHE Y-VKA (antibody, human IgG1, V domains shown)
VH: EVQLVESGGGLVQPGGSLRLSCAASGFSLTIYGAHWVRQAPGKGLEWVGVIWAGGSTNYNSALMSRFTISKDNSKNTVYLQMNSLRAEDTAVYYCARDGSSPYYYSMEVWGQGTTVTVSS
VL: EIVLTQSPATLSLSPGERATLSCSATSSVSYMHWFQQKPGQAPRLLIYSTSNLASGIPARFSGSGSGTDFTLTISSLEPEDFAVYYCQQRSSYPFTFGPGTKLDIK
notes: human IgG1/kappa

This assay deals with T1, recombinant human Siglec-8 extracellular domain (ECD) (human, UniProt Q9NYZ4 17-363).
T1 construct: extracellular domain; also called Siglec-8 ECD; full Siglec-8 ECD
T1 sequence (Q9NYZ4 17-363): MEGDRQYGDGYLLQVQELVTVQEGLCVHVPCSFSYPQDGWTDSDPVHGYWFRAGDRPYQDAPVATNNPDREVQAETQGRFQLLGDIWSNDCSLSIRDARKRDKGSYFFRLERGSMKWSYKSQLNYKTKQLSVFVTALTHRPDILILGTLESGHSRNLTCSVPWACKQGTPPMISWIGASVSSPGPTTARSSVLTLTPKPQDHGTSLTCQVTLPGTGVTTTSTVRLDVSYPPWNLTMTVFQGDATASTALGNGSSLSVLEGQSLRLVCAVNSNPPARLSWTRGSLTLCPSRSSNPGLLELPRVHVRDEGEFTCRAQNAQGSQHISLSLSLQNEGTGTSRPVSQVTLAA
Briefly: ELISA, coated Siglec-8 ECD. As for the experimental part: Binding of recombinant human Siglec-8 extracellular domain (ECD) by chimeric 2E2 and chimeric 2C4 IgG1K antibodies was measured by ELISA. […] Three-fold serial dilutions of a chimeric antibody (ch2E2 or ch2C4) or mouse antibody (m2E2 or m2C4) in 0.2% BSA/TBS (starting concentration was 5000 ng/mL) was added to each coated well. The plate was incubated for 2 hours at room temperature and the wells were subsequently washed before addition of goat-anti-human Fc peroxidase conjugate (1:10000 dilution) or anti-mouse Fc peroxidase conjugate (1:30000 dilution) diluted in 0.2% BSA/TBS solution. The plate was incubated for 45 minutes at room temperature, followed by washing and addition of 30 μL K-blue HRP substrate (SkyBio Ltd) to each well. After incubation at room temperature for 15 minutes, the reaction was stopped by adding 10 μL of Red Stop solution (SkyBio Ltd) to each well. The optical density or the experimental samples was read at 650 nm using the ELISA reader PHERAStar FS (BMG Labtech).
The fully humanized antibody heavy and light chains were combined and compared with the chimeric antibody to determine if replacing the 4 Å and canonical framework residues and interface residues was sufficient to successfully humanize 2E2. Expi293 cells were co-transfected with combinations of different humanized light chain vectors in association with different humanized heavy chain vectors. Siglec-8 antigen was used to measure antibody binding by ELISA as described in Example 1.
For orientation: EC50 means the concentration needed to bring the measured effect to its halfway point. Take B1: the concentration for a half-maximal effect (EC50) came out at 1.4 nM.

As to B2, the EC50 came out at 8.81 nM.

For B3, the EC50 came out at 18.6 nM.

Turning to B4, the half-maximal effective concentration (EC50) was determined as 0.398 nM.

For the molecule B5, the concentration giving a half-maximal response (EC50) came out at 0.07 nM.

On to B6, for which the EC50 stood at 33.5 nM.

With B7, the EC50 is 8.65 nM.

Regarding B8, the EC50 is 0.306 nM.

As for B9, the EC50 worked out at 207 nM.

For B10, the EC50 stood at 627 nM.

Turning to B11, the concentration for a half-maximal effect (EC50) worked out at 0.283 nM.

For the molecule B12, the EC50 was 0.215 nM.

Regarding B13, the 50% effective concentration (EC50) stood at 13.2 nM.

Take B14: the EC50 came out at 50.6 nM.

For B15, the EC50 worked out at 3.28 nM.

As to B16, the EC50 is 0.091 nM.

Regarding B17, the half-maximal effective concentration (EC50) stood at 34.1 nM.

As for B18, the EC50 came out at 173 nM.

In the case of B19, the concentration giving a half-maximal response (EC50) came out at 0.088 nM.
